Experiments:
[1] = target: rabbit muscle G-actin, biotinylated (rabbit, UniProt P68135 1-377); test: BLI; conditions: both partners purified
[2] = target: rabbit muscle F-actin, biotinylated (rabbit, UniProt P68135 1-377); test: BLI; conditions: both partners purified

B1: Plasmodium falciparum aldolase (enzyme)
chain: MAHCTEYMNAPKKLPADVAEELATTAQKLVQAGKGILAADESTQTIKKRFDNIKLENTIENRASYRDLLFGTKGLGKFISGAILFEETLFQKNEAGVPMVNLLHNENIIPGIKVDKGLVNIPCTDEEKSTQGLDGLAERCKEYYKAGARFAKWRTVLVIDTAKGKPTDLSIHETAWGLARYASICQQNRLVPIVEPEILADGPHSIEVCAVVTQKVLSCVFKALQENGVLLEGALLKPNMVTAGYECTAKTTTQDVGFLTVRTLRRTVPPALPGVVFLSGGQSEEEASVNLNSINALGPHPWALTFSYGRALQASVLNTWQGKKENVAKAREVLLQRAEANSLATYGKYKGGAGGENAGASLYEKKYVY
notes: also called Pf aldolase; recombinant Pf aldolase; source: E. coli BL21 (pGEX-5X), purified, GST tag removed
- Kd [1]: 330 nM
- Kd [2]: 365 nM

Source: article PMC4251702, “Plasmodium falciparum aldolase and the C-terminal cytoplasmic domain of certain apical organellar proteins promote actin polymerization” (Molecular and Biochemical Parasitology, 2014)
